Measured values as given in paper PMC5866560 (Proceedings of the National Academy of Sciences of the …, 2018).

Biological target: T1, recombinant Bri2 protein covering residues 113 to 231 comprising the BRICHOS domain (human, UniProt Q9Y287-1 113-231)
T1 sequence (looked up): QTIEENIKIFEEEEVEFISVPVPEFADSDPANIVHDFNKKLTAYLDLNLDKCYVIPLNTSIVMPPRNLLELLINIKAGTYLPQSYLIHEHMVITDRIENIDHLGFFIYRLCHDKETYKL
Assay: immuno-electron microscopy

**Q.** Does KCNTATCATQRLANFLVHSSNNFGAILSSTNVGSNTY (peptide, UniProt P10997 34-70, looked up) [islet amyloid polypeptide IAPP 1–37] bind?
**A.** binds
